Experimental data: paper PMC10285643 (iScience, 2023)

Target: extracellular domain of Toll-like receptor 4 (TLR4) (UniProt O00206 24-631)
Assay: ITC

Sequence of extracellular domain of Toll-like receptor 4 (TLR4) (O00206 24-631): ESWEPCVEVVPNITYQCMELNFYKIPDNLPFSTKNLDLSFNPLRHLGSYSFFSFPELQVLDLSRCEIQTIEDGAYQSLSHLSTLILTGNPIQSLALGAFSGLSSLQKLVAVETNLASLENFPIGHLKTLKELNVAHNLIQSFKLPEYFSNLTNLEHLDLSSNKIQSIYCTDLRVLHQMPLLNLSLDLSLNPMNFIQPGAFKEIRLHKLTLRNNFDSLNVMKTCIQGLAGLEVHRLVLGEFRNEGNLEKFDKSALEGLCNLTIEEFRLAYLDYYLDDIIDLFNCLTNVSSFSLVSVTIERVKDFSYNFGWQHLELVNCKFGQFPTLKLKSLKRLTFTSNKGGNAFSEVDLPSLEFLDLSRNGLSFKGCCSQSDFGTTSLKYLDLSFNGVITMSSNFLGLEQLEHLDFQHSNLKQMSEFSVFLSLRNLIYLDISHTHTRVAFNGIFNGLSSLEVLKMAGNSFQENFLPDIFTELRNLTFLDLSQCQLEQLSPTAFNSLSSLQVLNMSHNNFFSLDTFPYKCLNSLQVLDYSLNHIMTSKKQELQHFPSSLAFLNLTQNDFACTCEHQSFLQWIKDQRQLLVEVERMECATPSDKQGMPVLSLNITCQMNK

B1: Cold-inducible RNA binding protein (CIRP) (natural protein, UniProt Q14011 1-172, looked up)
chain: MASDEGKLFVGGLSFDTNEQSLEQVFSKYGQISEVVVVKDRETQRSRGFGFVTFENIDDAKDAMMAMNGKSVDGRQIRVDQAGKSSDNRSRGYRGGSAGGRGFFRGGRGRGRGFSRGGGDRGYGGNRFESRSGGYGGSRDYYSSRSQSGGYSDRSSGGSYRDSYDSYATHNE
modifications: 15N-labeled (in the NMR titration)
  Kd: 3.72 ± 1.98 µM
